From article doi:10.1101/2020.10.12.335539 come the findings set out here.

The target in assay [1] is humanized anti-hCD20 IgG1 (Rituximab) (human). The assay is described as follows: flow cytometry on cells. (In general: A flow cytometer gives signals particle by particle.)
Assay [2] deals with HCMV-IgG hyperimmunoglobulin preparation (Cytotect) (human). The assay is described as follows: flow cytometry on cells.

As to CD4-tailed gp68 (gp68-CD4), the percent reduction of FcγRIII binding to immune complexes in assay [1] stood at 60%.

In assay [2], “HCMV gp68 on the surface of HCMV AD169/pBAC2-infected MRC-5 cells (from UniProt P16739 24-345) (natural protein)” had a percent reduction of FcγRIII binding to opsonized infected cells of 60%.
